Measurements taken from patent US5719039A, “Enzyme-surfactant ion-pair complex catalyzed reactions in organic solvents” (University of Iowa Research Foundation, priority 1995, dated 1998).

B1: papain: papain, pI of about 8.75 and maximal activity at pH 7.8 (protein, UniProt P00784 134-345, looked up)
Papain: IPEYVDWRQKGAVTPVKNQGSCGSCWAFSAVVTIEGIIKIRTGNLNEYSEQELLDCDRRSYGCNGGYPWSALQLVAQYGIHYRNTYPYEGVQRYCRSREKGPYAAKTDGVRQVQPYNEGALLYSIANQPVSVVLEAAGKDFQLYRGGIFVGPCGNKVDHAVAAVGYGPNYILIKNSWGTGWGENGYIRIKRGTGNSYGVCGLYTSSFYPVKN
B2: Subtilisin BPN': subtilisin BPN' (from Bacillus amyloliquefaciens) (protein, UniProt P00782 108-382, looked up)
Subtilisin BPN': AQSVPYGVSQIKAPALHSQGYTGSNVKVAVIDSGIDSSHPDLKVAGGASMVPSETNPFQDNNSHGTHVAGTVAALNNSIGVLGVAPSASLYAVKVLGADGSGQYSWIINGIEWAIANNMDVINMSLGGPSGSAALKAAVDKAVASGVVVVAAAGNEGTSGSSSTVGYPGKYPSVIAVGAVDSSNQRASFSSVGPELDVMAPGVSIQSTLPGNKYGAYNGTSMASPHVAGAAALILSKHPNWTNTQVRSSLENTTTKLGDSFYYGKGLINVQAAAQ
B3: subtilisin Carlsberg: subtilisin Carlsberg (from Bacillus licheniformis) (protein, UniProt P00780 106-379, looked up)
Subtilisin Carlsberg: AQTVPYGIPLIKADKVQAQGFKGANVKVAVLDTGIQASHPDLNVVGGASFVAGEAYNTDGNGHGTHVAGTVAALDNTTGVLGVAPSVSLYAVKVLNSSGSGSYSGIVSGIEWATTNGMDVINMSLGGASGSTAMKQAVDNAYAKGVVVVAAAGNSGSSGNTNTIGYPAKYDSVIAVGAVDSNSNRASFSSVGAELEVMAPGAGVYSTYPTNTYATLNGTSMASPHVAGAAALILSKHPNLSASQVRNRLSSTATYLGSSFYYGKGLINVEAAAQ

Assays:
CT = CT (Bos taurus, UniProt P00766); assay: Transesterification with CT pre-inactivated by PMSF; assay type: biochemical; settings: PMSF 0.3 mM
Description: Values for kcat /Km were determined by nonlinear fit of the kinetic data and represent averages of triplicate measurements with standard deviations in each case of less than 5%. Initial rates of formation of N-acetyl-L-phenylalanine propyl ester were determined by gas chromatography (530-μm fused silica gum (Hewlett-Packard)). […] Saturation kinetics could not be determined for reactions with CT suspended in isooctane as the solubility limit for the substrate in this solvent is substantially below the Km of the enzyme.

[1] = Extraction of enzyme from aqueous solution into isooctane containing 2 mM AOT; assay type: physicochemical
[2] = source not stated; cited from earlier work
[3] = source not stated; cited from earlier work; remark: listed apart in the source
[4] = 1 mg/ml aqueous enzyme, pH 7.8, 2 mM CaCl2, 2 mM AOT in isooctane

Molecule | reaction with pre-inactivated CT (CT) | Extraction Yield (enzyme in organic phase) ([1]; 0.5 mg/ml aqueous papain, pH 7.8, CaCl2, MnCl2, KCl, 2 mM AOT in isooctane) | pI [2] | pH of maximal activity [3] | Extraction Yield (enzyme in organic phase) [1, 4] | extraction ([1]; 1 mg/ml aqueous solution, pH 7.8, 2 mM AOT in isooctane)
O=S(=O)(F)Cc1ccccc1 [phenylmethanesulfonyl fluoride] | No reaction was observed |  |  |  |  | 
B1 |  | 0.35 mg/mL | about 8.75 | 7.8 |  | 
B2 |  |  | 9.4 | 7.8 | 0.4 mg/mL | 40%
B3 |  |  | 8.5 | ~7.8 | 0.3 mg/mL | 
